Source: publication doi:10.1101/2024.09.20.614183, “Rubisco packaging and stoichiometric composition of a native β-carboxysome” (bioRxiv, 2024)

Biological target: T1, Rubisco L8S8 hexadecamer (Form IB ribulose 1,5-bisphosphate carboxylase/oxygenase) of Synechococcus elongatus … (Synechococcus elongatus PCC7942 …, UniProt Q31NB3 1-472; Q31NB2 1-111)
T1 construct: RbcL, Rubisco large subunit, Synechococcus elongatus PCC7942; printed MW 52.4 kDa; RbcS, Rubisco small subunit, Synechococcus elongatus PCC7942; printed MW 13.3 kDa; Native holoenzyme imaged inside isolated β-carboxysomes; never isolated on its own; also called Rubisco complex; Rubisco holoenzyme; source: endogenous, inside β-carboxysomes purified from Syn7942 (sucrose gradient …)
T1 sequence (Q31NB2 whole entry, chain 2 of 2, other chains not shown): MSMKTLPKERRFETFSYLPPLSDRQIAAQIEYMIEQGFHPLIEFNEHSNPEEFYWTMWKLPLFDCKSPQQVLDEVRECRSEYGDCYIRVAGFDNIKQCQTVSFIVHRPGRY
Assay: cryo-EM structure; cryo-electron tomography and subtomogram averaging (emClarity) of Rubisco inside intact β-carboxysomes isolated from Syn7942 grown under low light; 185 carboxysomes; D4 symmetry applied; 3.5 Å
Details: partners not purified

B1: CcmM, Rubisco-scaffolding linker protein of the Syn7942 β-carboxysome (natural protein, UniProt Q03513-2 1-324, looked up)
chain: MSAYNGQGRLSSEVITQVRSLLNQGYRIGTEHADKRRFRTSSWQPCAPIQSTNERQVLSELENCLSEHEGEYVRLLGIDTNTRSRVFEALIQRPDGSVPESLGSQPVAVASGGGRQSSYASVSGNLSAEVVNKVRNLLAQGYRIGTEHADKRRFRTSSWQSCAPIQSSNERQVLAELENCLSEHEGEYVRLLGIDTASRSRVFEALIQDPQGPVGSAKAAAAPVSSATPSSHSYTSNGSSSSDVAGQVRGLLAQGYRISAEVADKRRFQTSSWQSLPALSGQSEATVLPALESILQEHKGKYVRLIGIDPAARRRVAELLIQKP
notes: CcmM, Synechococcus elongatus PCC7942; Mixture of CcmM58 and CcmM35 in the native carboxysome; only an SSUL module is resolved; also called CcmM SSUL; CcmM58; source: endogenous, inside β-carboxysomes purified from Syn7942 (sucrose gradient ultracentrifugation)
stoichiometry N: 4 SSUL domains per Rubisco
